Laboratory results: patent US12186374B2 (Sanofi-Aventis Deutschland GmbH, priority 2014, dated 2025)

Tests used:
[1] = tested on: patients with Type 2 diabetes mellitus (T2DM); test: Patient disposition / treatment discontinuation (Example 2); format: in vivo; conditions: randomized population
patients with T2DM [2] = test: Symptomatic hypoglycemia (Example 3)
[3] = tested on: patients with Type 2 diabetes mellitus (T2DM); test: HbA1c change from baseline to Week 30 (Example 2, on top of metformin); format: in vivo, human; conditions: for HbA1c change from baseline to Week 30, LS Mean (SE): MMRM
Description: For the eligibility and efficacy assessments of the study, HbA1c is measured by a certified level I “National Glycohemoglobin Standardization Program” (NGSP) central laboratory.
Randomization was stratified by values of HbA1c at visit 4 (<8%, […]) and second oral anti-diabetic (OAD) use at screening (Yes, No).
Diagnosis and criteria for inclusion: Inclusion criteria: Patients with type 2 diabetes mellitus (T2DM) diagnosed for at least 1 year before the screening visit, treated for at least 3 months prior to Visit 1 with metformin alone or metformin and a second oral anti-diabetic treatment that could be a SU, a glinide, a SGLT-2 inhibitor, or a DPP-4 inhibitor, and who were not adequately controlled with this treatment.
Efficacy analysis was based on modified intent-to-treat (mITT) population using efficacy assessments collected during the study, including those obtained after IMP discontinuation or introduction of rescue therapy. The mITT population consisted of all randomized patients who had both a baseline assessment and at least one post-baseline assessment of any primary or secondary efficacy variables.
The primary efficacy endpoint was analyzed using a mixed-effect model with repeated measures (MMRM). The MMRM model included the treatment groups, randomization strata, visit, treatment-by-visit interaction, and country as fixed-effect factors, and the baseline HbA1c-by-visit interaction as covariate.

patients with T2DM [4] = test: Fasting plasma glucose change from baseline to Week 30 (Example 3); format: in vivo, human
Description: FPG is measured at a central laboratory. At V5 and V21, FPG will be part of the standardized meal test.
Similar MMRM method or analysis of covariance (ANCOVA) was applied on continuous secondary efficacy endpoints and the Cochran-Mantei-Haenszel method stratified by randomization strata was applied for categorical efficacy endpoints.

patients with T2DM [5] = test: Pen-related event questionnaire (Example 3); conditions: on-treatment period
[6] = on-treatment period, Safety population
[7] = plasma glucose <60 mg/dL [[…]], on-treatment period, Safety population
[8] = plasma glucose ≤70 mg/dL [[…]], on-treatment period, Safety population

Gly(A21)-Arg(B31)-Arg(B32)-human insulin [Insulin Glargine]
Status at last study contact: Dead, % [1]: 0.9%
Status at last study contact: Dead, number of patients [1]: 4 patients
Study treatment discontinuation due to adverse event, % [1]: 1.9%
Study treatment discontinuation due to adverse event, number of patients [1]: 9 patients
Study treatment discontinuation due to lack of efficacy, number of patients [1]: 0 patients
Documented symptomatic hypoglycemia event rate per patient-year (patients with T2DM [2]; Example 3): 4.22 per patient-year
Patients with at least one event of documented (PG ≤70 mg/dL) symptomatic hypoglycemia (patients with T2DM [2]; Example 3): 42.5%
Severe symptomatic hypoglycemia, % of patients (patients with T2DM [2]; Example 3): 0.3%
Severe symptomatic hypoglycemia, number of events (patients with T2DM [2]; Example 3): 1 events
Severe symptomatic hypoglycemia, number of patients (patients with T2DM [2]; Example 3): 1 patients
Probable symptomatic hypoglycaemia: Number of events (patients with T2DM [2]; [6]): 29
Probable symptomatic hypoglycaemia: Number of events per patient year (patients with T2DM [2]; [6]): 0.14
Probable symptomatic hypoglycaemia: Number of patients with events per patient year (patients with T2DM [2]; [6]): 0.10
Probable symptomatic hypoglycaemia: patients with events, % (patients with T2DM [2]; [6]): (5.5%)
Severe symptomatic hypoglycaemia: Number of events (patients with T2DM [2]; [6]): 1
Severe symptomatic hypoglycaemia: Number of events per patient year (patients with T2DM [2]; [6]): <0.01
Severe symptomatic hypoglycaemia: Number of patients with events per patient year (patients with T2DM [2]; [6]): <0.01
Severe symptomatic hypoglycaemia: patients with events, % (patients with T2DM [2]; [6]): (0.3%)
Symptomatic hypoglycemia: Number of events (patients with T2DM [2]; [6]): 910
Symptomatic hypoglycemia: Number of events per patient year (patients with T2DM [2]; [6]): 4.36
Symptomatic hypoglycemia: Number of patients with events per patient year (patients with T2DM [2]; [6]): 0.77
Symptomatic hypoglycemia: patients with events, % (patients with T2DM [2]; [6]): (44.1%)
Documented symptomatic hypoglycaemia: Number of events (patients with T2DM [2]; [7]): 235
Documented symptomatic hypoglycaemia: Number of events per patient year (patients with T2DM [2]; [7]): 1.13
Documented symptomatic hypoglycaemia: Number of patients with events per patient year (patients with T2DM [2]; [7]): 0.40
Documented symptomatic hypoglycaemia: patients with events, % (patients with T2DM [2]; [7]): (22.7%)
Documented symptomatic hypoglycaemia: Number of events (patients with T2DM [2]; [8]): 880
Documented symptomatic hypoglycaemia: Number of events per patient year (patients with T2DM [2]; [8]): 4.22
Documented symptomatic hypoglycaemia: Number of patients with events per patient year (patients with T2DM [2]; [8]): 0.74
Documented symptomatic hypoglycaemia: patients with events, % (patients with T2DM [2]; [8]): (42.5%)
HbA1c change from baseline to Week 30, LS Mean (SE) ([3]; mITT population): −1.34 (0.039) %
HbA1c change from baseline to Week 30, LS Mean (SE) ([3]; mITT population, listed as insulin glargine): −1.34%
HbA1c (%) Week 30 Mean (SD) ([3]; Week 30, mITT population): 6.81 (0.76) %
HbA1c (%) Week 30 Median ([3]; Week 30, mITT population): 6.70%
HbA1c (%) Week 30 Mean (SD) ([3]; Week 30, mITT population, listed as insulin glargine): 6.8%
HbA1c (%) Baseline Mean (SD) ([3]; baseline, mITT population): 8.08 (0.69) %
HbA1c (%) Baseline Median ([3]; baseline, mITT population): 8.00%
FPG, LS mean change from baseline to Week 30 (patients with T2DM [4]; Example 3): -0.46 mmol/L
Fasting plasma glucose change from baseline to Week 30, LS Mean (patients with T2DM [4]; MMRM, mITT population): -0.46 mmol/L
Fasting plasma glucose at Week 30, Mean (patients with T2DM [4]; mITT population): 6.69 mmol/L
Fasting plasma glucose at Week 30, Median (patients with T2DM [4]; mITT population): 6.30 mmol/L
Patients reporting pen-related events, % (patients with T2DM [5]; Example 3): 4.1%
Patients reporting pen-related events, number (patients with T2DM [5]; Example 3): 15 patients
% of patients with events reported in pen-related event questionnaire: Any pen-related events (patients with T2DM [5]; Safety population): 4.1%
% of patients with events reported in pen-related event questionnaire: Not associated with a clinical event (patients with T2DM [5]; Safety population): 4.1%
Number of patients with events reported in pen-related event questionnaire: Any pen-related events (patients with T2DM [5]; Safety population): 15
Number of patients with events reported in pen-related event questionnaire: Associated with a clinical event (patients with T2DM [5]; Safety population): 0
Number of patients with events reported in pen-related event questionnaire: Not associated with a clinical event (patients with T2DM [5]; Safety population): 15
